The values that follow come from article PMC8630017, “Structural insights into proteolytic activation of the human Dispatched1 transporter for Hedgehog morphogen release” (Nature Communications, 2021).

The chains are these.
B1: hDisp1^NNN (D572N, D573N, D1051N), N-terminal Flag tag and C-terminal His10 tag, purified (natural protein, human, UniProt Q96F81 1-1524, looked up)
chain: MAMSNGNNDFVVLSNSSIATSAANPSPLTPCDGDHAAQQLTPKEATRTKVSPNGCLQLNGTVKSSFLPLDNQRMPQMLPQCCHPCPYHHPLTSHSSHQECHPEAGPAAPSALASCCMQPHSEYSASLCPNHSPVYQTTCCLQPSPSFCLHHPWPDHFQHQPVQQHIANIRPSRPFKLPKSYAALIADWPVVVLGMCTMFIVVCALVGVLVPELPDFSDPLLGFEPRGTAIGQRLVTWNNMVKNTGYKATLANYPFKYADEQAKSHRDDRWSDDHYEREKREVDWNFHKDSFFCDVPSDRYSRVVFTSSGGETLWNLPAIKSMCNVDNSRIRSHPQFGDLCQRTTAASCCPSWTLGNYIAILNNRSSCQKIVERDVSHTLKLLRTCAKHYQNGTLGPDCWDMAARRKDQLKCTNVPRKCTKYNAVYQILHYLVDKDFMTPKTADYATPALKYSMLFSPTEKGESMMNIYLDNFENWNSSDGVTTITGIEFGIKHSLFQDYLLMDTVYPAIAIVIVLLVMCVYTKSMFITLMTMFAIISSLIVSYFLYRVVFHFEFFPFMNLTALIILVGIGANNAFVLCDVWNYTKFDKPHAETSETVSITLQHAALSMFVTSFTTAAAFYANYVSNITAIRCFGVYAGTAILVNYVLMVTWLPAVVVLHERYLLNIFTCFKKPQQQIYDNKSCWTVACQKCHKVLFAISEASRIFFEKVLPCIVIKFRYLWLFWFLALTVGGAYIVCINPKMKLPSLELSEFQVFRSSHPFERYDAEYKKLFMFERVHHGEELHMPITVIWGVSPEDNGNPLNPKSKGKLTLDSSFNIASPASQAWILHFCQKLRNQTFFYQTDEQDFTSCFIETFKQWMENQDCDEPALYPCCSHWSFPYKQEIFELCIKRAIMELERSTGYHLDSKTPGPRFDINDTIRAVVLEFQSTYLFTLAYEKMHQFYKEVDSWISSELSSAPEGLSNGWFVSNLEFYDLQDSLSDGTLIAMGLSVAVAFSVMLLTTWNIIISLYAIISIAGTIFVTVGSLVLLGWELNVLESVTISVAVGLSVNFAVHYGVAYRLAPDPDREGKVIFSLSRVGSAMAMAALTTFVAGAMMMPSTVLAYTQLGTFMMLIMCISWAFATFFFQCMCRCLGPQGTCGQIPLPKKLQCSAFSHALSTSPSDKGQSKTHTINAYHLDPRGPKSELEHEFYELEPLASHSCTAPEKTTYEETHICSEFFNSQAKNLGMPVHAAYNSELSKSTESDAGSALLQPPLEQHTVCHFFSLNQRCSCPDAYKHLNYGPHSCQQMGDCLCHQCSPTTSSFVQIQNGVAPLKATHQAVEGFVHPITHIHHCPCLQGRVKPAGMQNSLPRNFFLHPVQHIQAQEKIGKTNVHSLQRSIEEHLPKMAEPSSFVCRSTGSLLKTCCDPENKQRELCKNRDVSNLESSGGTENKAGGKVELSLSQTDASVNSEHFNQNEPKVLFNHLMGEAGCRSCPNNSQSCGRIVRVKCNSVDCQMPNMEANVPAVLTHSELSGESLLIKTL
notes: human Dispatched1, M1 to L1524, triple mutant in TM4 and TM10; The purified protein is a mix of uncleaved (175 kDa) and Furin-cleaved species (C145 with the His tag; N35 and N30 with the Flag tag); source: HEK293F, transiently transfected, purified (anti-Flag resin, Ni-NTA, SEC on Superose 6) in GDN; not shown: Flag, N-terminal, kept; His10, C-terminal, kept

In one data set the target is wild-type human Dispatched1 (hDisp1), N-terminal Flag tag and C-terminal Twin-Strep tag (human) (UniProt Q96F81).
Assay: not given
Take “NanoLuc-tagged human Shh, mutant E71A (from UniProt Q15465 24-462) (ligand)”: the Scube2-dependent Shh-NL release from HEK293T cells after 6 h, against WT Shh-NL (fold reduction) was greater than 2.
On the same count and under the same terms, then “NanoLuc-tagged human Shh, mutant K74A (from UniProt Q15465 24-462) (ligand)”, with greater than 2; and “NanoLuc-tagged human Shh, mutant L56A (from UniProt Q15465 24-462) (ligand)”, with greater than 2.
On the same count and under the same terms, the result for “NanoLuc-tagged human Shh, mutant L56K (from UniProt Q15465 24-462) (ligand)” reads greater than 2; that for “NanoLuc-tagged human Shh, mutant N50A (from UniProt Q15465 24-462) (ligand)”, greater than 2.
Regarding “NanoLuc-tagged human Shh, mutant N81A (from UniProt Q15465 24-462) (ligand)”, the Scube2-dependent Shh-NL release from HEK293T cells after 6 h, against WT Shh-NL (surface localisation of this mutant reduced just below 50%) (fold reduction) is greater than 2.
On to “NanoLuc-tagged human Shh, mutant V51E (from UniProt Q15465 24-462) (ligand)”, for which the Scube2-dependent Shh-NL release from HEK293T cells after 6 h, against WT Shh-NL (fold reduction) is greater than 2.
Still for that read-out and setting: the result for “NanoLuc-tagged human Shh, mutant Y80A (from UniProt Q15465 24-462) (ligand)” reads greater than 2.

Another data set concerns the molecule itself. The data set is described as follows: SEC; purified hDisp1^NNN on Superose 6 10/300 GL in 25 mM Tris pH 8.0, 150 mM NaCl, 0.02% GDN.
Consider B1, for which the binding result is reported as “binds”.
